Test results taken from paper PMC12547741, “DUF-721 and N-terminal extension of the helicase loader DciA bind ssDNA to promote replicative DnaB helicase loading in Caulobacter crescentus”.

B1: 80-mer oligo 1790 (ssDNA)
DNA: TCCTTGTTATCCACAGGGCAGTTTTTTTTTTTTTTTTTTTTTTTTTTTTTTTTTTTTTTTTGTGCGATATAGTTCTCCGA

What was measured:
ccDnaB-His (wild type) = test: pull-down (Ni-conjugated magnetic beads), quantified from SDS-14% PAGE with Coomassie staining; conditions: sfTq2-DciA 850 nM, three independent reactions per legend, parent: est. 1.4, read off a plot
[1] = target: ccDnaB-His (wild type) (Caulobacter crescentus); test: SEC; ccDnaB-His alone on Superdex 200; 25 mM Tris-HCl pH 7.5, 300 mM NaCl, 20% glycerol, 0.1 mM ATP, 5 mM MgCl2; fractions by SDS-PAGE; hexamer
His-DciA del1-45 = His-DciA del1-45 (UniProt A0A0H3C5R2 46-179, del1-45); test: EMSA; 150 mM K-glutamate; EMSA: 20 mM Tris-HCl pH 7.5, 10 mM Mg acetate, 50 or 150 mM K-glutamate, 0.1 mg/ml BSA, 10% glycerol, 2 mM ATP, 12.5 nM DNA, 5 min on ice; M13 pull-down: Tris pH 7.5, 10 mM Mg acetate, 50 mM K-glutamate, 0.1 mM ATP, 0.1 mg/ml BSA, 30 C; conditions: protein: recombinant; tags: N-terminal His6; label: 5'-FAM
His-DciA L119S = His-DciA L119S (UniProt A0A0H3C5R2 1-179, L119S); test: as above; conditions: protein: recombinant; tags: N-terminal His6; label: 5'-FAM
[2] = target: His-DciA R106A L119S (RL) (UniProt A0A0H3C5R2 1-179, R106A;L119S); test: as above; conditions: protein: recombinant; tags: N-terminal His6; label: 5'-FAM
His-DciA 4A2S = His-DciA 4A2S (UniProt A0A0H3C5R2 1-179, H98A;Q99A;Q102A;R106A;M109S;L110S); test: as above; conditions: protein: recombinant; tags: N-terminal His6; label: 5'-FAM
His-DciA 4A = His-DciA 4A (UniProt A0A0H3C5R2 1-179, H98A;Q99A;Q102A;R106A); test: as above; conditions: protein: recombinant; tags: N-terminal His6; label: 5'-FAM
His-DciA R106A [3] = target: T1, His-DciA R106A (UniProt A0A0H3C5R2 1-179, R106A); test: as above; conditions: protein: recombinant; tags: N-terminal His6; label: 5'-FAM
His-DciA WT [4] = target: T2, His-DciA WT (UniProt A0A0H3C5R2 1-179); test: as above; conditions: protein: recombinant; tags: N-terminal His6; label: 5'-FAM
His-DciA R106A [5] = target: T1, His-DciA R106A; test: EMSA; 50 mM K-glutamate; EMSA: 20 mM Tris-HCl pH 7.5, 10 mM Mg acetate, 50 or 150 mM K-glutamate, 0.1 mg/ml BSA, 10% glycerol, 2 mM ATP, 12.5 nM DNA, 5 min on ice; M13 pull-down: Tris pH 7.5, 10 mM Mg acetate, 50 mM K-glutamate, 0.1 mM ATP, 0.1 mg/ml BSA, 30 C; conditions: protein: recombinant; tags: N-terminal His6; label: 5'-FAM
His-DciA WT [6] = target: T2, His-DciA WT; test: as above; conditions: protein: recombinant; tags: N-terminal His6; label: 5'-FAM

T2 sequence (A0A0H3C5R2 entry or part of it): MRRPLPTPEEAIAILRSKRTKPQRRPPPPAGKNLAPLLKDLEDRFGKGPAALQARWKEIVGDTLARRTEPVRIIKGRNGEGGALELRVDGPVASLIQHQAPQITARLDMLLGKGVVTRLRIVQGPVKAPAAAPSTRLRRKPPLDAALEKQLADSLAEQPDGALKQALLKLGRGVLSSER
T1 sequence (A0A0H3C5R2 entry or part of it R106A | R106A R106A): as the sequence (A0A0H3C5R2 entry or part of it) above, with R106A counted along it
His-DciA del1-45, sequence (A0A0H3C5R2 entry or part of it del1-45): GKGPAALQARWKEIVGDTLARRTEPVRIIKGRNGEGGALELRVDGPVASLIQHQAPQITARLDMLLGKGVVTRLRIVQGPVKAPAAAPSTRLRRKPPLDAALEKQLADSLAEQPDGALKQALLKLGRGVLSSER
His-DciA R106A L119S (RL), sequence (A0A0H3C5R2 entry or part of it R106A;L119S | R106A L119S R106A L119S): as the sequence (A0A0H3C5R2 entry or part of it) above, with R106A, L119S counted along it
His-DciA 4A, sequence (A0A0H3C5R2 entry or part of it H98A;Q99A;Q102A;R106A): as the sequence (A0A0H3C5R2 entry or part of it) above, with H98A, Q99A, Q102A, R106A counted along it
His-DciA 4A2S, sequence (A0A0H3C5R2 entry or part of it H98A;Q99A;Q102A;R106A;M109S;L110S): as the sequence (A0A0H3C5R2 entry or part of it) above, with H98A, Q99A, Q102A, R106A, M109S, L110S counted along it
His-DciA L119S, sequence (A0A0H3C5R2 entry or part of it L119S | L119S L119S): as the sequence (A0A0H3C5R2 entry or part of it) above, with L119S counted along it

Molecule | response (ccDnaB-His (wild type)) [AU] | stoichiometry N [1] | Kd (His-DciA del1-45) [nM] | Kd (His-DciA L119S) [nM] | Kd [2] [nM] | Kd (His-DciA 4A2S) [nM] | Kd (His-DciA 4A) [nM] | Kd (His-DciA R106A [3]) [nM] | Kd (His-DciA WT [4]) [nM] | Kd (His-DciA R106A [5]) [nM] | Kd (His-DciA WT [6]) [nM]
superfolder mTurquoise2 fluorescent protein-tagged DciA (sfTq2-DciA), wild type R106A | 1.2 |  |  |  |  |  |  |  |  |  | 
ccDnaB-His (wild type) (enzyme) |  | 6 |  |  |  |  |  |  |  |  | 
B1 |  |  | 115 ± 40.3 | 115 ± 40.3 | 115 ± 40.3 | 115 ± 40.3 | 115 ± 40.3 | 115 ± 40.3 | 25.4 ± 8.4 | 152 ± 75.4 | 49.7 ± 24.4
TTTTTTTTTTTTTTTTTTTTTTTTTTTTTTTTTTT (ssDNA) [35-mer oligo 2201] |  |  | 520 ± 30.6 |  | 665 ± 47.9 |  |  | 543 ± 9.95 | 109 ± 21 | 35.7 ± 17.6 | 19.6 ± 7.03
